According to patent US10919943B2, “Mutant proteins enabling agrochemical control of plant gene expression” (The Regents of the University of California, priority 2016, dated 2021):
Positions count from the first letter of the chain named. Numbers in names are those of the source. Marks after values point to notes of the source that are not given here.

Tests used:
[1] = test system: HAB1; test: In vitro PP2C assay, ligand-promoted inhibition of GST-HAB1 by receptor; format: biochemical, Arabidopsis; details: ABA-promoted; FIG. 2
Description: (§1) In the presence of ABA, wild type PYR1 binds to HAB1 and docks into its active site, which inhibits its enzymatic activity by blocking access of substrates. To characterize the orthogonal PYR1^! and HAB1^! interaction biochemically, we produced recombinant forms of each protein in E. coli, along with the wild type form, and tested the wild type and orthogonal mutant for their ability to inhibit HAB1 and HAB1^! activities in vitro. We cloned PYR1^! into pET28 to generate 6×-His tagged receptor and cloned HAB1^! into pGEX-4T-1 to create a GST-fusion protein. The previously constructed (S.-Y. Park et al., 2009) wild type 6×-His-PYR1 and GST-HAB1 constructs were used for producing recombinant wild type proteins. The 6×-His-tagged receptors and GST-tagged PP2Cs were expressed and purified as previously described. Briefly, the proteins were expressed in BL21 [DE3]pLysS E. coli host cells at 18° C. overnight. Fusion proteins were purified from sonicated lysates using Ni-NTA agarose (Qiagen, USA) or Pierce™ Glutathione Agarose (Thermo Scientific) according to the manufacturer's instructions. PP2C assays were conducted in 96-well polystyrene flat-bottom microtitre plates (Greiner). […] The plates were read using a Victor 2 plate reader (PerkinElmer) (355 nm excitation, 460 nm emission) and assays run in triplicate. The PP2C activity values reported are expressed as percent control values, which were calculated by including the carrier solvent (1% DMSO) and the specific receptor assayed, but no ligand. […]
According to our current understanding, in order for ABA signaling to be initiated in vivo, PP2C activity must be inhibited to enable accumulation of active SnRK2 kinases. […] 4-methylumbeliferyl phosphate was added (1 mM final concentration) was added to the reactions after 30 minutes equilibration and plates were read by fluorimetry. The PP2C activity values reported are expressed as percent control values, which was calculated by including the carrier solvent (1% DMSO) and the specific receptor assayed, but no ligand.

[2] = molecular target: T1, HAB1^! (Arabidopsis thaliana); test: In vitro PP2C assay, ABA-promoted inhibition of GST-HAB1^! by receptor; format: biochemical; details: in response to ABA; 100 nM receptor, 50 nM PP2C; FIG. 2
T1 construct: 6xHis (N); made in house; host or cells: E. coli BL21 [DE3]pLysS
Description: as §1, with “overnight.” for “overnight. Fusion proteins were purified from sonicated lysates using Ni-NTA agarose (Qiagen, USA) or Pierce™ Glutathione Agarose (Thermo Scientific) according to the manufacturer's instructions. PP2C assays were conducted in 96-well polystyrene flat-bottom microtitre plates (Greiner).”

[3] = test system: HAB1; test: Yeast two hybrid of pBD-PYR1 site saturation mutants with pACT-HAB1 on 10 μM ABA, β-galactosidase staining; format: cell-based, Arabidopsis; design: key: x: Mutations in PYR1 that disrupt ABA-induced binding to PYR1 to HAB1; details: S. cerevisiae Y190, 10 μM ABA; dead = lack of visible staining in comparison to wild type control
Method in brief: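 Binding was read by β-galactosidase staining of chloroform-lysed colonies after 2 days at 30° C on SD (-Leu, -Trp) plates containing 10 μM (+)-ABA. Yeast strain Y190 carried the BD-PYR1 single-substitution mutants plus the AD-HAB1 fusion. Absence of staining versus the wild-type control defined "dead" mutants.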

[4] = molecular target: T2, HAB1^! (Arabidopsis thaliana, UniProt O49686+Q9CAJ0, F108A/F159L/K59R/S122G/T162D/V393R/V81I/Y58H); test: Yeast two hybrid, mandipropamid-promoted interaction of PYR1 variants with HAB1^!; format: cell-based; details: FIG. 3
T2 construct: expressed in transfected cells
Description: (§2) To engineer orthogonal mandipropamid responsiveness, we introduced the PYR1^! mutation into the PYR1^MANDI receptor to create a septuple mutant called PYR1^!-MANDI (PYR1^Y58H;K59R;V81I;F108A;S122G;F159L;T162D). This mutant interacts with HAB1^! and HAB^!-2 in response to low μM mandipropamid in yeast two-hybrid assays, but is ˜100-fold less sensitive than the PYR1^MANDI/HAB1 interaction, which responds to concentrations in the low nM range (FIG. 3).

[5] = test system: HAB1^!-2; test: Yeast two hybrid, mandipropamid-promoted interaction of PYR1 variants with HAB1^!-2; format: cell-based; details: FIG. 3, FIG. 4
Description: as §2
To improve sensitivity, we mutagenized ligand contacting and interface residues in PYR1^!-MANDI using NNK primers, pooled the mutant libraries, and used the mutagenized receptors in selection experiments using to identify enhancer mutations. The NNK mutagenesis screen targeted the following residues: P55, H60, F61, I62, K63, V83, S85, G86, L87, P88, A89, S92, E94, I110, H115, R116, L117, Y120, E141, P148, G150, N151, D154, D155, T156, M158, A160, V163, V164, L166, N167, and K170. […] Since M158 and A160 flank the […] mutation present in PYR1^MANDI, we inferred that the closely located orthogonalizing T162D mutation in PYR1^!-MANDI may have reduced mandipropamid sensitivity by altering the local structure of the C-terminal α3-helix, which participates in ligand-induced conformational changes needed for PP2C binding (Nishimura et al., 2009). We therefore simultaneously mutagenized positions M158, F159 and A160 using a primer with degenerate NNK codons at all three positions. F159 was included in this mutagenesis because we have previously observed that multiple substitutions at F159 (A,C,I,L,M,T, or V) are permissive for mandipropamid responsiveness (S. Y. Park et al., n.d.), and sought to test whether residues other than leucine at position 159 might function better in the context of simultaneous changes to both A160 and M158. The mutagenic primer was used in QuickChange mutagenesis reactions using pBD-PYR1^!-MANDI template, and a library of ˜12,000 clones was generated. Plasmid DNA for the library was prepared from pooled E. coli transformants, and subsequently transformed into S. cerevisiae strain MAV99 harboring pACT-HAB1^!-2. ˜20,000 yeast transformants were generated, pooled, and plated onto SD(-Leu,-Trp) agar media supplemented with 0.1% fluorotic acid (to select against mutants that interact in a ligand-independent fashion). The surviving cells were collected and plated onto SD(Leu,-Trp,-Ura) plates supplemented with 50 nM mandipropamid. The colonies displaying the best uracil-independent growth were isolated and retested on different mandipropamid concentrations and then stained in β-galactosidase assays to rank their relative strength.

[6] = molecular target: T3, PYR1*^-MANDI (Arabidopsis thaliana, UniProt O49686, A160V/F108A/F159V/K59R/M158I/S122G/T162D/V81I/Y58H); test: Yeast two hybrid, mandipropamid-induced interaction of HAB1 variants with pBD-PYR1*^-MANDI; format: cell-based; details: FIG. 5
T3 construct: expressed in transfected cells; host or cells: S. cerevisiae strain MAV99 (selection)
T3 sequence (O49686 1-191 Y58H/K59R/V81I/F108A/S122G/M158I/F159V/A160V/T162D): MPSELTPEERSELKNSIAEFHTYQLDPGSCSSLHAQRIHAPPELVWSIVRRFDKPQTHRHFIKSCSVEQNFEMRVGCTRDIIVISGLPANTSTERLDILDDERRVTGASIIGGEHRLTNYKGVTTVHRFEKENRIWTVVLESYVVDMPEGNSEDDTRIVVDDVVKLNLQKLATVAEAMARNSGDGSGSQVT
Description: To investigate the effects of overexpressing HAB1^!-2 in Arabidopsis, we used Agrobacterium mediated transformation to generate 35S::GFP-HAB1^!-2 transgenic plants. HAB1^!-2 was cloned from pACT-HAB1^!-2 into pEGAD, a binary vector suitable for plant transformation, generating a 35S-driven GFP-HAB1^!-2 fusion protein. The clone was transformed into Agrobacterium and the floral dip method used to transform Arabidopsis. After selection of T0 seed on soil containing glufosinate, several T1 seedlings were identified. […] As an alternate strategy, we eliminated HAB1's catalytic activity by introducing a mutation in a conserved metal-ion binding residue (D204), which is homologous to D131A mutation in ABI1, previously shown to eliminate phosphatase activity without disrupting wild type receptor-ABI1 interactions (Liang et al., 2011). We used QuickChange mutagenesis to introduce the D204A mutation into pACT-HAB1^!-2, generating pACT-HAB1^!-3. When tested for mandipropamid induced interactions with pBD-PYR1*^-MANDI, HAB1^!-3 is ˜10-fold less sensitive to mandipropamid relative to HAB1^!-2 (FIG. 5).
D204 is located within HAB1's catalytic active site and binds to one of 3 catalytic Mg^++ ions that participate in catalysis. […] It is likely that disruptions to active site structure introduced by D204A destabilize the PYR1*^-MANDI/HAB1^!-3 interaction relative to HAB1^!-2. We reasoned that suppressor mutations in other HAB1 interface or active site residues could restore sensitivity by strengthening interactions with PYR1*^-MANDI. To identify such suppressors, we mutagenized the pACT-HAB1^!-3 template using NNK mutagenesis in 28 residues located with at the PYR1 binding interface. The residues targeted were: R199, S200, E201, E203, D243, G244, H245, G246, G247, S322, E323, T324, D346, K365, K381, 1383, Q384, W385, Q386, R389, F391, G392, Y404, S431, G433, D436, D492 and N394. The pACT-HAB1^!-3 template was mutagenized in 28 separate NNK mutagenesis reactions using the QuickChange protocol. Mini-libraries, each containing ˜1000 clones, were made for each NNK reaction and plasmid DNA for the 28 mutations prepared, pooled, and then transformed into S. cerevisiae strain MAV99 co-transformed with pBD-PYR1*^-MANDI, and then plated onto selective SD(-Leu,-Trp,-Ura) agar media supplemented with 500 nM mandipropamid. […] S322D and R199A were combined using the Lightning Multi-site Mutagenesis™ (Agilent, USA) method, and the resultant pentuple mutant tested in combination with pBD-PYR1*^-MANDI for sensitivity to mandipropamid using β-galactosidase assays.

[7] = Phosphatase activity of recombinant GST-HAB1 proteins (4-methylumbeliferyl phosphate); format: biochemical; details: 1 μg protein, percent control (GST-HAB1); FIG. 7
Description: as §1, with “described.” for “described. Briefly, the proteins were expressed in BL21 [DE3]pLysS E. coli host cells at 18° C. overnight. Fusion proteins were purified from sonicated lysates using Ni-NTA agarose (Qiagen, USA) or Pierce™ Glutathione Agarose (Thermo Scientific) according to the manufacturer's instructions. PP2C assays were conducted in 96-well polystyrene flat-bottom microtitre plates (Greiner).”
To characterize HAB1^!-3 and HAB1* in vitro, we cloned them into pGEX-4T-1 to create GST-fusion proteins. […] The PP2C activity values reported are expressed as percent control (GST-HAB1) from triplicate measurements.

T1 sequence (O49686 whole entry T162D): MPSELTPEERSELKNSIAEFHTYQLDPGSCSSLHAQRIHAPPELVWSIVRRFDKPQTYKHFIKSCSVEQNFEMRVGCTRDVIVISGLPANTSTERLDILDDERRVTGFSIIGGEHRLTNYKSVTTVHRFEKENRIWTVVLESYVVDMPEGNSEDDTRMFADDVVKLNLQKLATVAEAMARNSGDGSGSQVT
T2 sequence (O49686 whole entry Y58H/K59R/V81I/F108A/S122G/F159L/T162D): as the sequence (O49686 whole entry T162D) above, with Y58H, K59R, V81I, F108A, S122G, F159L counted along it
T2 sequence (Q9CAJ0 4-511 V393R): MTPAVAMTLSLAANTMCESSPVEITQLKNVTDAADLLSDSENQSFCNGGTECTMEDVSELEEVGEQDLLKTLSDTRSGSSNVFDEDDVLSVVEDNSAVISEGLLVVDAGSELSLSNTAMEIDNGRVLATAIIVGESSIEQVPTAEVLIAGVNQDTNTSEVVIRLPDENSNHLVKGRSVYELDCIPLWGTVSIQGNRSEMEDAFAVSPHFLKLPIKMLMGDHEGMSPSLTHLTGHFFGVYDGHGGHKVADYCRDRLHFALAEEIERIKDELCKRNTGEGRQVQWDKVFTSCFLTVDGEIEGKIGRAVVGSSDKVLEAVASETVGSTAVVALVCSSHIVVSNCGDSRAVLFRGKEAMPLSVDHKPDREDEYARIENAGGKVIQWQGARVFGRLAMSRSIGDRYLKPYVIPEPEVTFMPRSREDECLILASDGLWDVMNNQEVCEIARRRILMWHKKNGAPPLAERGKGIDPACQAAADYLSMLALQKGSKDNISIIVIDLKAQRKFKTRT

B1: T162D: PYR1 mutant T162D, denoted PYR1^! (protein, UniProt O49686 1-191, looked up, variant T162D)
Abscisic acid receptor PYR1: T3 sequence (O49686 1-191 Y58H/K59R/V81I/F108A/S122G/M158I/F159V/A160V/T162D) with H58Y, R59K, I81V, A108F, G122S, I158M, V159F, V160A
inhibition of HAB1 phosphatase activity [1]: unable to inhibit
inhibition of HAB1^! phosphatase activity [2]: does not strongly inhibit
Mutations in PYR1 that disrupt ABA-induced binding to PYR1 to HAB1 [3]: x

B2: PYR1^!-MANDI: septuple PYR1 mutant (protein, UniProt O49686 1-191, looked up, variant Y58H K59R V81I F108A S122G F159L T162D)
Abscisic acid receptor PYR1: T3 sequence (O49686 1-191 Y58H/K59R/V81I/F108A/S122G/M158I/F159V/A160V/T162D) with I158M, V159L, V160A
mandipropamid concentration to which the interaction responds [4]: low μM
mandipropamid concentration to which the interaction responds [5]: low μM

B3: HAB1^!-3: HAB1^!-2 with the D204A mutation, catalytically inactive (protein)
chain: MTPAVAMTLSLAANTMCESSPVEITQLKNVTDAADLLSDSENQSFCNGGTECTMEDVSELEEVGEQDLLKTLSDTRSGSSNVFDEDDVLSVVEDNSAVISEGLLVVDAGSELSLSNTAMEIDNGRVLATAIIVGESSIEQVPTAEVLIAGVNQDTNTSEVVIRLPDENSNHLVKGRSVYELDCIPLWGTVSIQGNRSEMEAAFAVSPHFLKLPIKMLMGDHEGMSPSLTHLTGHFFGVYDGHGGHKVADYCRDRLHFALAEEIERIKDELCKRNTGEGRQVQWDKVFTSCFLTVDGEIEGKIGRAVVGSSDKVLEAVASETVGSTAVVALVCSSHIVVSNCGDSRAVLFRGKEAMPLSVDHKPDREDEYARIENAGGKVIQWQGARVFGRLAMSRSIGDRYLKPYVIPEPEVTFMPRSREDECLILASDGLWDVMNNQEVCEIARRRILMWHKKNGAPPLAERGKGIDPACQAAADYLSMLALQKGSKDNISIIVIDLKAQAKFKTRT
modifications: left off: small tags and cut ends
fold less sensitive to mandipropamid relative to HAB1^!-2 [6]: ~10 fold
catalytic activity in vitro [7]: Neither HAB1^!-3 or HAB1* display detectable catalytic activity
